Numbering of substitutions follows the chain as printed. Names may count otherwise. No end group written: not given here. TMR = tetramethyl rhodamine dye
T1: Rb^P T620M (human, UniProt P06400 380-788, T620M)
T1 construct: also called variant 40
T1 sequence (looked up): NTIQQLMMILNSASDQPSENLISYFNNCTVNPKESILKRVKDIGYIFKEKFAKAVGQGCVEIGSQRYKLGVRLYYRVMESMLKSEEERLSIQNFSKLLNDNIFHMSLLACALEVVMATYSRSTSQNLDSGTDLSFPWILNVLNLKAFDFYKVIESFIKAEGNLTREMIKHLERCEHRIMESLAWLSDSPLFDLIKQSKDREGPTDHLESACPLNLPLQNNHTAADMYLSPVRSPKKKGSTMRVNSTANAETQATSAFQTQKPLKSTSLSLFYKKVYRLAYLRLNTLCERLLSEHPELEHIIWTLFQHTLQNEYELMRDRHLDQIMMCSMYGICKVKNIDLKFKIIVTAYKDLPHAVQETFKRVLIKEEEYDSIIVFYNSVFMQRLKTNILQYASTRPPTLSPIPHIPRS

T2: Rb^P A488V (human, UniProt P06400 380-788, A488V)
T2 construct: also called variant 14
T2 sequence (looked up): T1 sequence (looked up) with A109V, M241T

T3: Rb^P D584Y (human, UniProt P06400 380-788, D584Y)
T3 construct: also called variant 32
T3 sequence (looked up): T1 sequence (looked up) with D205Y, M241T

T4: Rb^P I703V (human, UniProt P06400 380-788, I703V)
T4 construct: also called variant 65
T4 sequence (looked up): T1 sequence (looked up) with M241T, I324V

T5: Rb^P L550I (human, UniProt P06400 380-788, L550I)
T5 construct: also called variant 27
T5 sequence (looked up): T1 sequence (looked up) with L171I, M241T

B1: TMR-E2F1^TD, peptide of the E2F1 transactivation domain (peptide)
peptide: {TMR}-GEGIRDLFDCDFGDLTPLD
notes: also called E2F^TD; source: synthetic peptide, bought: GenScript
B2: TMR-E7^LxCxE, LxCxE peptide of the E7 oncoprotein from HPV (peptide)
peptide: DLYCYEQLN
modifications: also: TMR label, position not given here
notes: source: synthetic peptide, bought: GenScript

Experiments:
Test in all cases: fluorescence polarisation; 25 °C; unlabeled Rb^P titrated against 1.5 nM TMR-E2F1^TD or 7.5 nM TMR-E7^LxCxE; 25 mM Tris pH 8.0, 200 mM NaCl, 1 mM DTT, 0.1% Tween-20; 2 min incubation; quadratic fit; apparent Kd for the variants, Kd for WT
Details in all cases: both partners purified
[1] = molecular target: T1, Rb^P T620M
[2] = molecular target: T2, Rb^P A488V
[3] = molecular target: T3, Rb^P D584Y
[4] = molecular target: T4, Rb^P I703V
[5] = molecular target: T5, Rb^P L550I

Binder | Kd [1] [nM] | Kd [2] [nM] | Kd [3] [nM] | Kd [4] [nM] | Kd [5] [nM]
B1 | 24 | 53 | 33 | 20 | 41
B2 | 6 | 9 | 12 | 21 | 3

Reference: publication PMC11931385, “Structural and functional analysis of cancer-associated missense variants in the retinoblastoma protein pocket domain” (The Journal of Biological Chemistry, 2025)
